The supplement of paper PMC5998384

Legend:
HeLa Kyoto [1] = test: solubility in G1/S (NP-40 vs SDS abundance) (log2 ratio); higher = more soluble; conditions: cell cycle stage: G1/S
HeLa Kyoto [2] = test: melting temperature (median over replicates), in situ; higher = more thermally stable
HeLa Kyoto [3] = test: solubility change mitosis vs G1/S (difference of NP-40 vs SDS log2 ratios) (log2 ratio difference); higher = more soluble in mitosis
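Throughout, for melting temperature (median over replicates), in situ: HeLa Kyoto cells synchronized by double thymidine or nocodazole block, proteins quantified by TMT10plex mass spectrometry, three independent biological replicates.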
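Throughout, for solubility change mitosis vs G1/S (difference of NP-40 vs SDS log2 ratios): synchronized HeLa Kyoto cells (double thymidine block for G1/S, nocodazole release for mitosis), protein amounts in NP-40 versus SDS lysates quantified by mass spectrometry, three biological replicates.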
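Throughout, for solubility in G1/S (NP-40 vs SDS abundance): HeLa Kyoto cells arrested at G1/S by double thymidine block, proteins quantified by TMT10plex mass spectrometry in mild NP-40 versus SDS extracts, three biological replicates.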

| Sequence | solubility in G1/S (log2) (HeLa Kyoto [1]) | melting temperature (HeLa Kyoto [2]; cell cycle stage: G1/S) | solubility change mitosis (log2) (HeLa Kyoto [3]) | melting temperature (HeLa Kyoto [2]; cell cycle stage: mitosis) |
| --- | --- | --- | --- | --- |
| MKDRLEQLKAKQLTQDDDTDAVEIAIDNTAFMDEFFSEIEETRLNIDKISEHVEEAKKLYSIILSAPIPEPKTKDDLEQLTTEIKKRANNVRNKLKSMEKHIEEDEVRSSADLRIRKSQHSVLSRKFVEVMTKYNEAQVDFRERSKGRIQRQLEITGKKTTDEELEEMLESGNPAIFTSGIIDSQISKQALSEIEGRHKDIVRLESSIKELHDMFMDIAMLVENQGEMLDNIELNVMHTVDHVEKARDETKKAVKYQSQARKKLIIIIVLVVVLLGILALIIGLSVGLN [STX3] | 0.157 | 53.9 °C | 0.0981 | – |
| MKGLGDSRPRHLSDSLDPPHEPLFAGTDRNPYLLSPTEAFAREARFPGQNTLPGDGLFPLNNQLPPPSSTFPRIHYNSHFEVPEESPFPSHAQATKINRLPANLLDQFEKQLPIHRDGFSTLQFPRGEAKARGESPGRIRHLVHSVQRLFFTKAPSLEGTAGKVGGNGSKKGGMEDGKGRRAKSKERAKAGEPKRRSRSNISGWWSSDDNLDGEAGAFRSSGPASGLMTLGRQAERSQPRYFMHAYNTISGHMLKTTKNNTTELTAPPPPPAPPATCPSLGVGTDTNYVKRGSWSTLTLSHAHEVCQKTSATLDKSLLKSKSCHQGLAYHYLQVPGGGGEWSTTLLSPRETDAAAEGPIPCRRMRSGSYIKAMGDEDSDESGGSPKPSPKTAARRQSYLRATQQSLGEQSNPRRSLDRLDSVDMLLPSKCPSWEEDYTPVSDSLNDSSCISQIFGQASLIPQLFGHEQQVREAELSDQYEAACESACSEAESTAAETLDLPLPSYFRSRSHSYLRAIQAGCSQEEDSVSLQSLSPPPSTGSLSNSRTLPSSSCLVAYKKTPPPVPPRTTSKPFISVTVQSSTESAQDTYLDSQDHKSEVTSQSGLSNSSDSLDSSTRPPSVTRGGVAPAPEAPEPPPKHAALKSEQGTLTSSESHPEAAPKRKLSSIGIQVDCIQPVPKEEPSPATKFQSIGVQVEDDWRSSVPSHSMSSRRDTDSDTQDANDSSCKSSERSLPDCTPHPNSISIDAGPRQAPKIAQIKRNLSYGDNSDPALEASSLPPPDPWLETSSSSPAEPAQPGACRRDGYWFLKLLQAETERLEGWCCQMDKETKENNLSEEVLGKVLSAVGSAQLLMSQKFQQFRGLCEQNLNPDANPRPTAQDLAGFWDLLQLSIEDISMKFDELYHLKANSWQLVETPEKRKEEKKPPPPVPKKPAKSKPAVSRDKASDASDKQRQEARKRLLAAKRAASVRQNSATESADSIEIYVPEAQTRL [DLGAP4] | 0.269 | – | -0.0211 | 55.5 °C |
| MKIGSGFLSGGGGTGSSGGSGSGGGGSGGGGGGGSSGRRAEMEPTFPQGMVMFNHRLPPVTSFTRPAGSAAPPPQCVLSSSTSAAPAAEPPPPPAPDMTFKKEPAASAAAFPSQRTSWGFLQSLVSIKQEKPADPEEQQSHHHHHHHHYGGLFAGAEERSPGLGGGEGGSHGVIQDLSILHQHVQQQPAQHHRDVLLSSSSRTDDHHGTEEPKQDTNVKKAKRPKPESQGIKAKRKPSASSKPSLVGDGEGAILSPSQKPHICDHCSAAFRSSYHLRRHVLIHTGERPFQCSQCSMGFIQKYLLQRHEKIHSREKPFGCDQCSMKFIQKYHMERHKRTHSGEKPYKCDTCQQYFSRTDRLLKHRRTCGEVIVKGATSAEPGSSNHTNMGNLAVLSQGNTSSSRRKTKSKSIAIENKEQKTGKTNESQISNNINMQSYSVEMPTVSSSGGIIGTGIDELQKRVPKLIFKKGSRKNTDKNYLNFVSPLPDIVGQKSLSGKPSGSLGIVSNNSVETIGLLQSTSGKQGQISSNYDDAMQFSKKRRYLPTASSNSAFSINVGHMVSQQSVIQSAGVSVLDNEAPLSLIDSSALNAEIKSCHDKSGIPDEVLQSILDQYSNKSESQKEDPFNIAEPRVDLHTSGEHSELVQEENLSPGTQTPSNDKASMLQEYSKYLQQAFEKSTNASFTLGHGFQFVSLSSPLHNHTLFPEKQIYTTSPLECGFGQSVTSVLPSSLPKPPFGMLFGSQPGLYLSALDATHQQLTPSQELDDLIDSQKNLETSSAFQSSSQKLTSQKEQKNLESSTGFQIPSQELASQIDPQKDIEPRTTYQIENFAQAFGSQFKSGSRVPMTFITNSNGEVDHRVRTSVSDFSGYTNMMSDVSEPCSTRVKTPTSQSYR [ZNF281] | -0.357 | 45.1 °C | 0.0949 | 47.4 °C |
| MKVLLLKDAKEDDCGQDPYIRELGLYGLEATLIPVLSFEFLSLPSFSEKLSHPEDYGGLIFTSPRAVEAAELCLEQNNKTEVWERSLKEKWNAKSVYVVGNATASLVSKIGLDTEGETCGNAEKLAEYICSRESSALPLLFPCGNLKREILPKALKDKGIAMESITVYQTVAHPGIQGNLNSYYSQQGVPASITFFSPSGLTYSLKHIQELSGDNIDQIKFAAIGPTTARALAAQGLPVSCTAESPTPQALATGIRKALQPHGCC [UROS] | 0.234 | 51.5 °C | 0.14 | 52.4 °C |
| MLGWIKRLIRMVFQQVGVSMQSVLWSRKPYGSSRSIVRKIGTNLSLIQCPRVQFQINSHATEWSPSHPGEDAVASFADVGWVAKEEGECSARLRTEVRSRPPLQDDLLFFEKAPSRQISLPDLSQEEPQLKTPALANEEALQKICALENELAALRAQIAKIVTQQEQQNLTAGDLDSTTFGTIPPHPPPPPPPLPPPALGLHQSTSAVDLIKERREKRANAGKTLVKNNPKKPEMPNMLEILKEMNSVKLRSVKRSEQDVKPKPVDATDPAALIAEALKKKFAYRYRSDSQDEVEKGIPKSESEATSERVLFGPHMLKPTGKMKALIENVSDS [MTFR1] | 0.556 | 49.3 °C | 0.0301 | 52.1 °C |
| MLQGHSSVFQALLGTFFTWGMTAAGAALVFVFSSGQRRILDGSLGFAAGVMLAASYWSLLAPAVEMATSSGGFGAFAFFPVAVGFTLGAAFVYLADLLMPHLGAAEDPQTTLALNFGSTLMKKKSDPEGPALLFPESELSIRIGRAGLLSDKSENGEAYQRKKAAATGLPEGPAVPVPSRGNLAQPGGSSWRRIALLILAITIHNVPEGLAVGVGFGAIEKTASATFESARNLAIGIGIQNFPEGLAVSLPLRGAGFSTWRAFWYGQLSGMVEPLAGVFGAFAVVLAEPILPYALAFAAGAMVYVVMDDIIPEAQISGNGKLASWASILGFVVMMSLDVGLG [SLC39A11] | 0.00506 | 56 °C | -0.134 | 51.9 °C |
| MLRREARLRREYLYRKAREEAQRSAQERKERLRRALEENRLIPTELRREALALQGSLEFDDAGGEGVTSHVDDEYRWAGVEDPKVMITTSRDPSSRLKMFAKELKLVFPGAQRMNRGRHEVGALVRACKANGVTDLLVVHEHRGTPVGLIVSHLPFGPTAYFTLCNVVMRHDIPDLGTMSEAKPHLITHGFSSRLGKRVSDILRYLFPVPKDDSHRVITFANQDDYISFRHHVYKKTDHRNVELTEVGPRFELKLYMIRLGTLEQEATADVEWRWHPYTNTARKRVFLSTE [IMP4] | -1.9 | – | 0.914 | 51.4 °C |
